# Positions count from the first letter of the chain named. Numbers in names are those of the source.
# B1: GLS3000 N28P (Kabat) L chain altered form, one-arm antibody with CE115HA000 (antibody, human IgG1, kappa, L234A L235A, N297A, name in Kabat numbering)
# heavy: QVQLVESGGGVVQPGRSLRLSCAASGFTFSNAWMHWVRQAPGKGLEWVAQIKAKSNNYATYYAESVKGRFTISRDDSKNSLYLQMNSLKTEDTAVYYCRYVHYGAYYGVDAWGQGTTVTVSSASTKGPSVFPLAPSSKSTSGGTAALGCLVKDYFPEPVTVSWNSGALTSGVHTFPAVLQSSGLYSLSSVVTVPSSSLGTQTYICNVNHKPSNTKVDKKVEPKSCDKTHTCPPCPAPEAAGGPSVFLFPPKPKDTLMISRTPEVTCVVVDVSHEDPEVKFNWYVDGVEVHNAKTKPREEQYASTYRVVSVLTVLHQDWLNGKEYKCKVSNKALPAPIEKTISKAKGQPREPQVYTLPPSRCELTKNQVSLSCAVKGFYPSDIAVEWESNGQPENNYKTTPPVLDSDGSFFLVSKLTVDKSRWQQGNVFSCSVMHEALHNHYTQKSLSLSPDYKDDDDK
# chain: EPKSSDKTHTCPPCPAPELLGGPSVFLFPPKPKDTLMISRTPEVTCVVVDVSHEDPEVKFNWYVDGVEVHNAKTKPREEQYNSTYRVVSVLTVLHQDWLNGKEYKCKVSNKALPAPIEKTISKAKGQPREPQVCTLPPSRDELTKNQVSLWCLVKGFYPSDIAVEWESNGQPENNYKTTPPVLDSDGSFFLYSKLTVDKSRWQQGNVFSCSVMHEALHNRYTQKSLSLSP
# light: DIVMTQSPLSLPVTPGEPASISCRSSQSLVHSPRNTYLHWYQQKPGQAPRLLIYKVSNRFSGVPDRFSGSGSGTDFTLKISRVEAEDVGVYYCGQGTQVPYTFGQGTKLEIKRTVAAPSVFIFPPSDEQLKSGTASVVCLLNNFYPREAKVQWKVDNALQSGNSQESVTEQDSKDSTYSLSSTLTLSKADYEKHKVYACEVTHQGLSSPVTKSFNRGEC
# notes: one-arm antibody
# B2: GLS3000 N30T (Kabat) L chain altered form, one-arm antibody with CE115HA000 (antibody, human IgG1, kappa, L234A L235A, N297A, name in Kabat numbering)
# heavy: B1 heavy
# chain: B1 chain
# light: B1 light with P33N, N35T
# notes: one-arm antibody
# B3: GLS3000 N30K (Kabat) L chain altered form, one-arm antibody with CE115HA000 (antibody, human IgG1, kappa, L234A L235A, N297A, name in Kabat numbering)
# heavy: B1 heavy
# chain: B1 chain
# light: B1 light with P33N, N35K
# notes: one-arm antibody
# B4: GLS3000 N28Y (Kabat) L chain altered form, one-arm antibody with CE115HA000 (antibody, human IgG1, kappa, L234A L235A, N297A, name in Kabat numbering)
# heavy: B1 heavy
# chain: B1 chain
# light: B1 light with P33Y
# notes: one-arm antibody
# B5: GLS3000 N30R (Kabat) L chain altered form, one-arm antibody with CE115HA000 (antibody, human IgG1, kappa, L234A L235A, N297A, name in Kabat numbering)
# heavy: B1 heavy
# chain: B1 chain
# light: B1 light with P33N, N35R
# notes: one-arm antibody
# B6: GLS3000 N30L (Kabat) L chain altered form, one-arm antibody with CE115HA000 (antibody, human IgG1, kappa, L234A L235A, N297A, name in Kabat numbering)
# heavy: B1 heavy
# chain: B1 chain
# light: B1 light with P33N, N35L
# notes: one-arm antibody
# B7: GLS3000 N28S (Kabat) L chain altered form, one-arm antibody with CE115HA000 (antibody, human IgG1, kappa, L234A L235A, N297A, name in Kabat numbering)
# heavy: B1 heavy
# chain: B1 chain
# light: B1 light with P33S
# notes: one-arm antibody
# B8: GLS3000 N30G (Kabat) L chain altered form, one-arm antibody with CE115HA000 (antibody, human IgG1, kappa, L234A L235A, N297A, name in Kabat numbering)
# heavy: B1 heavy
# chain: B1 chain
# light: B1 light with P33N, N35G
# notes: one-arm antibody
# B9: GLS3000 N28T (Kabat) L chain altered form, one-arm antibody with CE115HA000 (antibody, human IgG1, kappa, L234A L235A, N297A, name in Kabat numbering)
# heavy: B1 heavy
# chain: B1 chain
# light: B1 light with P33T
# notes: one-arm antibody
# B10: GLS3000 N30W (Kabat) L chain altered form, one-arm antibody with CE115HA000 (antibody, human IgG1, kappa, L234A L235A, N297A, name in Kabat numbering)
# heavy: B1 heavy
# chain: B1 chain
# light: B1 light with P33N, N35W
# notes: one-arm antibody
# B11: GLS3000 N30D (Kabat) L chain altered form, one-arm antibody with CE115HA000 (antibody, human IgG1, kappa, L234A L235A, N297A, name in Kabat numbering)
# heavy: B1 heavy
# chain: B1 chain
# light: B1 light with P33N, N35D
# notes: one-arm antibody
# B12: GLS3000 N28W (Kabat) L chain altered form, one-arm antibody with CE115HA000 (antibody, human IgG1, kappa, L234A L235A, N297A, name in Kabat numbering)
# heavy: B1 heavy
# chain: B1 chain
# light: B1 light with P33W
# notes: one-arm antibody
# B13: GLS3000 N30V (Kabat) L chain altered form, one-arm antibody with CE115HA000 (antibody, human IgG1, kappa, L234A L235A, N297A, name in Kabat numbering)
# heavy: B1 heavy
# chain: B1 chain
# light: B1 light with P33N, N35V
# notes: one-arm antibody
# B14: GLS3000 N28V (Kabat) L chain altered form, one-arm antibody with CE115HA000 (antibody, human IgG1, kappa, L234A L235A, N297A, name in Kabat numbering)
# heavy: B1 heavy
# chain: B1 chain
# light: B1 light with P33V
# notes: one-arm antibody
# B15: GLS3000 N30P (Kabat) L chain altered form, one-arm antibody with CE115HA000 (antibody, human IgG1, kappa, L234A L235A, N297A, name in Kabat numbering)
# heavy: B1 heavy
# chain: B1 chain
# light: B1 light with P33N, N35P
# notes: one-arm antibody
# B16: GLS3000 N30S (Kabat) L chain altered form, one-arm antibody with CE115HA000 (antibody, human IgG1, kappa, L234A L235A, N297A, name in Kabat numbering)
# heavy: B1 heavy
# chain: B1 chain
# light: B1 light with P33N, N35S
# notes: one-arm antibody
# B17: GLS3000 N30A (Kabat) L chain altered form, one-arm antibody with CE115HA000 (antibody, human IgG1, kappa, L234A L235A, N297A, name in Kabat numbering)
# heavy: B1 heavy
# chain: B1 chain
# light: B1 light with P33N, N35A
# notes: one-arm antibody
# B18: GLS3000 N30M (Kabat) L chain altered form, one-arm antibody with CE115HA000 (antibody, human IgG1, kappa, L234A L235A, N297A, name in Kabat numbering)
# heavy: B1 heavy
# chain: B1 chain
# light: B1 light with P33N, N35M
# notes: one-arm antibody
# B19: GLS3000 N28Q (Kabat) L chain altered form, one-arm antibody with CE115HA000 (antibody, human IgG1, kappa, L234A L235A, N297A, name in Kabat numbering)
# heavy: B1 heavy
# chain: B1 chain
# light: B1 light with P33Q
# notes: one-arm antibody
# B20: GLS3000 N30H (Kabat) L chain altered form, one-arm antibody with CE115HA000 (antibody, human IgG1, kappa, L234A L235A, N297A, name in Kabat numbering)
# heavy: B1 heavy
# chain: B1 chain
# light: B1 light with P33N, N35H
# notes: one-arm antibody
# B21: GLS3000 N30E (Kabat) L chain altered form, one-arm antibody with CE115HA000 (antibody, human IgG1, kappa, L234A L235A, N297A, name in Kabat numbering)
# heavy: B1 heavy
# chain: B1 chain
# light: B1 light with P33N, N35E
# notes: one-arm antibody
# B22: GLS3000 N30I (Kabat) L chain altered form, one-arm antibody with CE115HA000 (antibody, human IgG1, kappa, L234A L235A, N297A, name in Kabat numbering)
# heavy: B1 heavy
# chain: B1 chain
# light: B1 light with P33N, N35I
# notes: one-arm antibody
# B23: GLS3000 N30Q (Kabat) L chain altered form, one-arm antibody with CE115HA000 (antibody, human IgG1, kappa, L234A L235A, N297A, name in Kabat numbering)
# heavy: B1 heavy
# chain: B1 chain
# light: B1 light with P33N, N35Q
# notes: one-arm antibody
# Target: T1, CD3 epsilon homodimer protein (UniProt P07766 23-126)
# T1 construct: construct not described; homodimer as printed; also called CD3 (CD3 epsilon)
# Experiment: SPR Biacore T200, CD3 epsilon homodimer immobilized; vs unaltered GLS3000;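 also: antibody variants flowed as analyte over CD3 epsilon homodimer amine-coupled to a CM4 chip, at 25 °C in HBS-EP+ running buffer, fitted with Biacore T200 Evaluation Software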
# T1 sequence (P07766 23-126): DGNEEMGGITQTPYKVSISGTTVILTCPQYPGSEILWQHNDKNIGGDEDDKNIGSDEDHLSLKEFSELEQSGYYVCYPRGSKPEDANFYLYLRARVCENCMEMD
row,Binder,KD ratio to GLS3000 (Affinity up)
1,B1,4.18
2,B2,12.7
3,B3,1.35
4,B4,3.89
5,B5,1.73
6,B6,1.19
7,B7,4.3
8,B8,2.1
9,B9,2.67
10,B10,0.97
11,B11,3.82
12,B12,3.17
13,B13,2.62
14,B14,3.73
15,B15,12.1
16,B16,10.6
17,B17,1.16
18,B18,1.2
19,B19,3.48
20,B20,1.08
21,B21,2.83
22,B22,1.24
23,B23,1

# From US20240270846A1 (published 2024)
